The results in this text go back to patent US20230227571A1 (University of Pennsylvania, published 2023).

The target in assay [1] is T1, human C5 (purified human complement C5, Complement Technology #A120; also C5 in normal human serum) (human, UniProt P01031 19-673; P01031 678-1676).
T1 construct: domain: β chain;domain: α chain; Purified plasma protein bought from Complement Technology; also called hC5
Put plainly: direct ELISA, plate coated with purified human C5, serially diluted mAb. From the text:
Direct antigen binding ELISA in which mAbs are serially diluted across microtiter plates coated with purified human C5.
(In an ELISA, binding on a coated surface is turned into a signal by an enzyme label.)

Assay [2] has as its target T1, human C5 (purified human complement C5, …). Put plainly: ELISA, plate coated with human C5, anti-human IgG4-HRP detection. From the text:
A plate was coated with human C5.

Numbering of substitutions follows the chain as printed. Numbers in names are those of the source.

T1 sequence (P01031 19-673 limits assumed, chain 1 of 2): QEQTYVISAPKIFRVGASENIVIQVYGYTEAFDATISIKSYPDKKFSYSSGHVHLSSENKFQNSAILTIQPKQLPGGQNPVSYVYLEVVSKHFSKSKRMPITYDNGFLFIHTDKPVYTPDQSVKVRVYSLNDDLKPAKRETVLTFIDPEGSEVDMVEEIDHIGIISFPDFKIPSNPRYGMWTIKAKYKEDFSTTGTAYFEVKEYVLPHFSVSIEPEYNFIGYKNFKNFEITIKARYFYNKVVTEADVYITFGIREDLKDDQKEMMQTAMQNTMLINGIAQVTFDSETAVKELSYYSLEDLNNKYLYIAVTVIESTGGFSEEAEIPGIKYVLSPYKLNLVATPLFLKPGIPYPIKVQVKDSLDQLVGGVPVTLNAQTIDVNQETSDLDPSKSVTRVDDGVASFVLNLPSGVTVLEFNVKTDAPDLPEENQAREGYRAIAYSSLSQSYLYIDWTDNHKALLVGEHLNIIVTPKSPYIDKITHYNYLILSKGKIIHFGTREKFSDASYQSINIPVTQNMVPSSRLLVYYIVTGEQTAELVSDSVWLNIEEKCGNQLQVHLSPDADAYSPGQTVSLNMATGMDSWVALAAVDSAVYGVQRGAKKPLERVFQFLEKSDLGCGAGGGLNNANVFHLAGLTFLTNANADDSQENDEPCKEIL
T1 sequence (P01031 678-1676 limits assumed, chain 2 of 2): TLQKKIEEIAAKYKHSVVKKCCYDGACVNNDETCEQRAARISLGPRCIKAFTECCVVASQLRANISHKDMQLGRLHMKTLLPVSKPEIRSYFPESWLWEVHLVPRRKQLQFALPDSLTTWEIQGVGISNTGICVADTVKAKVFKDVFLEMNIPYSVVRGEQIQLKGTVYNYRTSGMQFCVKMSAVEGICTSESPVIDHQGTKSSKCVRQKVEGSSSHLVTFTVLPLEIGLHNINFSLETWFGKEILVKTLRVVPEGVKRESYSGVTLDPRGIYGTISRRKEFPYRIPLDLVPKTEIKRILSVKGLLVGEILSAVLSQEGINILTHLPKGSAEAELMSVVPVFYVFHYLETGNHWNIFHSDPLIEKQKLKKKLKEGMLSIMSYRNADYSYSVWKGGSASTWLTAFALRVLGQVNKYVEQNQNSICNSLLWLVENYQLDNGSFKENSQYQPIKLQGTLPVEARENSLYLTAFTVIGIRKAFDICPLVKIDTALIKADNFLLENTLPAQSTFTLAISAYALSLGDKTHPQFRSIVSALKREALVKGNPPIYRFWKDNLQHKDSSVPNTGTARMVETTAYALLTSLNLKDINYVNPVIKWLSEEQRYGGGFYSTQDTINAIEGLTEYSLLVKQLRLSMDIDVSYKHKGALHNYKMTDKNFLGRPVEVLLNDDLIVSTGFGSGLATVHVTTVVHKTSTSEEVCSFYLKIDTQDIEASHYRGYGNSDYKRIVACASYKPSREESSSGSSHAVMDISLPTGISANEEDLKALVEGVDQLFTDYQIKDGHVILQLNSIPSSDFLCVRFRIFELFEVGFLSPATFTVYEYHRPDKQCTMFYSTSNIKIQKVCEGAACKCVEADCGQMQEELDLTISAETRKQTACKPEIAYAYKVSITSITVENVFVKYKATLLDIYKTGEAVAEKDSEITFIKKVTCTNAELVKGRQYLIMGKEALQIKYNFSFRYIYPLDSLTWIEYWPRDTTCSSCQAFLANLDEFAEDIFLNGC

B1: anti-human C5 mAb 9G6 (antibody, V domains shown)
VH: QIQLVQSGPELKKPGETVKISCKASGYTFTEYPMHWVKQAPGKSFKWMGILYTDTGEPTYAEEFRGRFAFSLETSASTAYLQINNLKNEDTATYFCVHSGYVGYWGQGTTLTVSS
VL: DIQMTQSPASLSASVGETVTFTCRASEIIYSYLVWYQQKQGKSPQLLVSNAKTLAEGVPSRFSGSGSGTQFSLKINSLQPEDFGSYYCQHYYGNPPTFGGGTKLEIKR
notes: Murine hybridoma mAb; entries may include the leader peptide
On to B1, for which the binding result in assay [1] is “binds”.

B2: anti-human C5 mAb 8E1 (antibody, V domains shown)
VH: QVQLKESGPGLVAPSQSLSITCTVSGFPLNNYGIHWVRQPPGKGLEWLAVIWSDGRTTYNSALNSRLSISKDNSKSQVFFKMNSLQTDDTAMYYCARHDGRGDYSMDYWGQGTSVTVSS
VL: ELVMTQSPASLVVSLGQRATISCRASKGVSTSVYSYMHWYQQKPGQPPKLLIYLASNLESGVPARFSGSGSGTDFSLNIHPVEEEDAATYYCQQSGELPLTFGAGTKLELKR
notes: as for B1
Take B2: the binding result in assay [1] is “binds”.

B3: anti-human C5 mAb 11C5 (antibody, V domains shown)
VH: EVQLVESGGGLVKPGGSLKLSCAASGFTFTTYAMSWVRQTPEKRLEWVATISAGGTYTYYSDNVKGRFTISRDNAKNNLYLQMSHLKSEDTAMFYCARDPDYYGRSPFAYWGQGTLVTVSA
VL: EIVLTQSPATLSVTPGESVSLSCRASQSISNNLQWYQQKSHESPRLLIKYASQSISGIPSRFSGSGSGTDFTLSINSVETEDFGMYFCQQSNSWPLTFGGGTKVELKR
notes: as for B1
Turning to B3, the binding result in assay [1] is given as “binds”.

B4: humanized 2G1 (VH-11801/VL-1901) (antibody, V domains shown)
VH: QVQLVQSGAEVKKPGASVKVSCKASGYTITDYNLDWVRQAPGQGLEWMGDISPNYGYTIYNQKFKDRVTMTTDTSTSTAYMELRSLRSDDTAVYYCARRDIRYSGNSYKWYFDVWGQGTMVTVSS
VL: DIQLTQSPSFLSASVGDRVTITCRTSKSISKYLAWYQQKPGKAPKLLIYSGSTLQSGVPSRFSGSGSGTEFTLTISSLQPEDFATYYCQQHNEYPYTFGQGTKLEIKT
notes: Human IgG4 mAb with S228P, expressed in CHO cells
As for B4, in assay [2], the binding result is given as “binds”.

B5: humanized 2G1 (VH-16901/VL-1901) (antibody, V domains shown)
VH: B4 VH with A16S, M70I, T72A, T74E, R84S, D89E
VL: B4 VL
notes: as for B4
Turning to B5, in assay [2], the binding result is recorded as “binds”.
